What was measured:
human CD19 [1] = molecular target: T1, human CD19 (human, UniProt P15391 20-556); test: flow cytometry on Ramos cells
T1 construct: whole, on cells; also called CD19 on Ramos cells; CD19 on Raji cells
T1 sequence (looked up): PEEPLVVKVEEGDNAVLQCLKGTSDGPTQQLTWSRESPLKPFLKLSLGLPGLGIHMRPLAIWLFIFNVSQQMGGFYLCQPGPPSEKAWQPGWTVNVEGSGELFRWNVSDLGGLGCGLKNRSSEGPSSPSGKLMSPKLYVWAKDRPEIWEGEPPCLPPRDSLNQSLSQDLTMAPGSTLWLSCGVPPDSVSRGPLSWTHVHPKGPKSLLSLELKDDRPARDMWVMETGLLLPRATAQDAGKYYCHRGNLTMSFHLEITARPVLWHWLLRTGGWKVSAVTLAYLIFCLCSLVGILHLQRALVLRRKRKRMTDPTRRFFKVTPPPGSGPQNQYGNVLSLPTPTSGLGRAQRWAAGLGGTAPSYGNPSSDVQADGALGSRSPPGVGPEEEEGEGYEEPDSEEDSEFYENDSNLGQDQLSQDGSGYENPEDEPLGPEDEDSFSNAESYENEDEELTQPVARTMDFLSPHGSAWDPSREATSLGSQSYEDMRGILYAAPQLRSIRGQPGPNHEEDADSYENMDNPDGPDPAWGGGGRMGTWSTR

human CD19 [2] = molecular target: T1, human CD19; test: cell-based or functional assay
human CD3 = molecular target: T2, human CD3 (human, UniProt P07766 23-207); test: flow cytometry on Jurkat cells
T2 construct: whole, on cells; On cells CD3 stands as the full CD3/TCR complex; also called CD3 on Jurkat cells
T2 sequence (P07766 23-207): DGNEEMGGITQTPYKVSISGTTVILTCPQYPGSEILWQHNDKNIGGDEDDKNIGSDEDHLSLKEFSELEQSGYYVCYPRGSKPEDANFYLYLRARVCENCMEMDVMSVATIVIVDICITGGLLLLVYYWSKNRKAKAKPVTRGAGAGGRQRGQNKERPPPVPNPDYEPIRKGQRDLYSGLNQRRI

- EC50 (human CD19 [1]): 1.8 nM
- EC50 (human CD3): 19.3 nM
B1: W3438-T3U4.F16-1.uIgG4.SP (bispecific antibody)
light 1: DIVMTQSPDSLAVSLGERATINCKSSQSLLNSRTRKNYLAWYQQKPGQPPKLLIYWASTRQSGVPDRFSGSGSGTDFTLTISSLQAEDVAVYYCTQSHTLRTFGGGTKVEIKPDIQNPDPAVYQLRDSKSSDKSVCLFTDFDSQTQVSQSKDSDVYITDKCVLDMRSMDFKSNSAVAWSQKSDFACANAFQNSIIPEDTFFPSPESS
heavy 1: QVQLVQSGAEVKKPGSSVKVSCKASGFAFTDYYIHWVRQAPGQGLEWMGWISPGNVNTKYNENFKGRVTITADKSTSTAYMELSSLRSEDTAVYYCARDGYSLYYFDYWGQGTLVTVLEDLKNVFPPEVAVFEPSEAEISHTQKATLVCLATGFYPDHVELSWWVNGKEVHSGVCTDPQPLKEQPALQDSRYALSSRLRVSATFWQNPRNHFRCQVQFYGLSENDEWTQDRAKPVTQIVSAEAWGRYGPPCPPCPAPEFLGGPSVFLFPPKPKDTLMISRTPEVTCVVVDVSQEDPEVQFNWYVDGVEVHNAKTKPREEQFNSTYRVVSVLTVLHQDWLNGKEYKCKVSNKGLPSSIEKTISKAKGQPREPQVYTLPPCQEEMTKNQVSLWCLVKGFYPSDIAVEWESNGQPENNYKTTPPVLDSDGSFFLYSRLTVDKSRWQEGNVFSCSVMHEALHNHYTQKSLSLSLGK
light 2: DIQLTQSPSFLSASVGDRVTITCSASSTVNYMHWYQQKPGKAPKLLIYSTSNLASGVPSRFSGSGSGTEFTLTISSLQPEDFATYYCHQWSSYPYTFGQGTKLEIKRTVAAPSVFIFPPSDEQLKSGTASVVCLLNNFYPREAKVQWKVDNALQSGNSQESVTEQDSKDSTYSLSSTLTLSKADYEKHKVYACEVTHQGLSSPVTKSFNRGEC
heavy 2: QMQLVQSGPEVKKPGTSVKVSCKASGYAFTSYNMYWVRQARGQRLEWIGYIDPYNGDTTYNQKFKGRVTITRDMSTSTAYMELSSLRSEDTAVYYCLTTAYAMDYWGQGTLVTVSSASTKGPSVFPLAPCSRSTSESTAALGCLVKDYFPEPVTVSWNSGALTSGVHTFPAVLQSSGLYSLSSVVTVPSSSLGTKTYTCNVDHKPSNTKVDKRVGGGGSGGGGSQMQLVQSGPEVKKPGTSVKVSCKASGYAFTSYNMYWVRQARGQRLEWIGYIDPYNGDTTYNQKFKGRVTITRDMSTSTAYMELSSLRSEDTAVYYCLTTAYAMDYWGQGTLVTVSSASTKGPSVFPLAPCSRSTSESTAALGCLVKDYFPEPVTVSWNSGALTSGVHTFPAVLQSSGLYSLSSVVTVPSSSLGTKTYTCNVDHKPSNTKVDKRVESKYGPPCPPCPAPEFLGGPSVFLFPPKPKDTLMISRTPEVTCVVVDVSQEDPEVQFNWYVDGVEVHNAKTKPREEQFNSTYRVVSVLTVLHQDWLNGKEYKCKVSNKGLPSSIEKTISKAKGQPREPQVCTLPPSQEEMTKNQVSLSCAVKGFYPSDIAVEWESNGQPENNYKTTPPVLDSDGSFFLVSRLTVDKSRWQEGNVFSCSVMHEALHNHYTQKSLSLSLGK
notes: also called WuXiBody
- cytotoxic activity on Raji cells with CD8+ T cells, EC50 (human CD19 [2]): 3.2 nM
